Measured values from publication doi:10.1101/589580.

Molecular target: full-length ZO1 with C-terminal mEGFP (UniProt Q07157)
Assay: client partitioning into phase-separated droplets

Chain of full-length ZO1 with C-terminal mEGFP (Q07157 whole entry): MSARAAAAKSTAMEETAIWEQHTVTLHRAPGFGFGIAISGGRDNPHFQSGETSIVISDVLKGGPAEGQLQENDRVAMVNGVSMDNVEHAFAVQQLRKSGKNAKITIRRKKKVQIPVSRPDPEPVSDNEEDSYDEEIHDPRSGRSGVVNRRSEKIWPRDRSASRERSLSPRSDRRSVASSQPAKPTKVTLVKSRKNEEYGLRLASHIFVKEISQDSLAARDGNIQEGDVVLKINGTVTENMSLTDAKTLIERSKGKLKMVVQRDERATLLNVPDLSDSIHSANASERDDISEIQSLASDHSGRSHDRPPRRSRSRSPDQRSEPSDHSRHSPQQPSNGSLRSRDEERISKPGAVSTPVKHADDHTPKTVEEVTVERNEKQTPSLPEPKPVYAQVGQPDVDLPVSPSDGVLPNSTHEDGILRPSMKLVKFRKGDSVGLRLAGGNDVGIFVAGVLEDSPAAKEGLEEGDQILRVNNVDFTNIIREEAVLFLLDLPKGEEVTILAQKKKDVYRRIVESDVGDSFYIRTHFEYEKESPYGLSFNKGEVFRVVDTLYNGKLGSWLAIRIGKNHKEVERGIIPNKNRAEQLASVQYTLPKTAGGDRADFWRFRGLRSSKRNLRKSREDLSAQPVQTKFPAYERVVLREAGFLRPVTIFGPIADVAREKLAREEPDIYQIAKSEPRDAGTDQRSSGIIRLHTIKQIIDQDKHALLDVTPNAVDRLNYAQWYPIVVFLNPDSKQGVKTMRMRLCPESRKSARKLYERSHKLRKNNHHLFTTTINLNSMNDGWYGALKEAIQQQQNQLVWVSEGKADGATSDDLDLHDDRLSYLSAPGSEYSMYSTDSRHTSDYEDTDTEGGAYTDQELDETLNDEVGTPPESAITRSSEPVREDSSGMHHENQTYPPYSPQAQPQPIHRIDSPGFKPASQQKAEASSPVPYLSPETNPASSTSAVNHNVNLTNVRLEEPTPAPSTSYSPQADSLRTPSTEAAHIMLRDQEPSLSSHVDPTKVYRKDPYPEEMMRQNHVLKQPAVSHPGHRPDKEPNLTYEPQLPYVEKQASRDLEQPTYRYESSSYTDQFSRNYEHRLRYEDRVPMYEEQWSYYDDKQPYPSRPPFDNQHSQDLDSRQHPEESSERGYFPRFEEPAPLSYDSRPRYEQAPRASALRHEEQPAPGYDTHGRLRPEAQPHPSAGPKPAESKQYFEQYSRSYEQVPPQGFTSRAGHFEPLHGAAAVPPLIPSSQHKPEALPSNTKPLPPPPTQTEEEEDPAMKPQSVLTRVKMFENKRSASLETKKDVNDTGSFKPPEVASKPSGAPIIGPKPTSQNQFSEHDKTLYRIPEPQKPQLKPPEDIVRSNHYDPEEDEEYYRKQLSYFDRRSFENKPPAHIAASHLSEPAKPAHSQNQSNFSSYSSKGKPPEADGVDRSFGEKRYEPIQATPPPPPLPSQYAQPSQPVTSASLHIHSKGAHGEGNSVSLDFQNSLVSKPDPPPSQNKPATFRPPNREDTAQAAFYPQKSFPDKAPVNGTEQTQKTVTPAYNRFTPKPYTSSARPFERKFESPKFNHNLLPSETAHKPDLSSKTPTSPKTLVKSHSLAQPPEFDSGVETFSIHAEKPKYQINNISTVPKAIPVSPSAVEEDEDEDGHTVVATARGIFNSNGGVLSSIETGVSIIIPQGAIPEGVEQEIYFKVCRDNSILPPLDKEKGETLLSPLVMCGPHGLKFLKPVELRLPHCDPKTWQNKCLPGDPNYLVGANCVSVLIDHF

| partitioning (client fluorescence inside/outside ZO1 droplets) | Substance |
| --- | --- |
| 9 fold | C-terminal domain of nectin-1 (from UniProt Q15223 31-517) (domain or fragment) |
| 21 fold | C-terminal domain of occludin (from UniProt Q16625 1-522) (domain or fragment) |
| 22 fold | monomeric actin (from UniProt P60709 1-375) (natural protein) |
